“And” between values parts separate entries of the source, which are not always exact repeats. Equal entries are not always repeated.
Assays:
[1] = target: Fc-TNC-fCD134L (chicken | feline) (UniProt P10039); assay: non-reducing SDS-PAGE with immunoblot
[2] = target: feline CD134 (OX40) expressed on MCC cells (feline); assay: flow cytometry on cells
[3] = target: human CD134 (OX40) expressed on MCC cells (human) (UniProt P43489); assay: flow cytometry on cells
[4] = target: native, endogenously expressed feline CD134 on MYA-1 T cells (feline (endogenous in MYA-1)); assay: flow cytometry on cells
[5] = target: the molecule itself; assay: non-reducing SDS-PAGE with immunoblot

Sequence of human CD134 (OX40) expressed on MCC cells (human) (P43489 29-277): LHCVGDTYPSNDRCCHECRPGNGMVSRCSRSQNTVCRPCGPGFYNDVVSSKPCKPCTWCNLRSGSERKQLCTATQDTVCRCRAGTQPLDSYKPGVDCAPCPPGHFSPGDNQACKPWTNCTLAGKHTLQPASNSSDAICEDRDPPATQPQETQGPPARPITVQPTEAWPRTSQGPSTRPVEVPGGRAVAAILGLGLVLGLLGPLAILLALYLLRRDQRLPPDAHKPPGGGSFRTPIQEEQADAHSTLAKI

## Fc-TNC-fCD134L (from UniProt P10039 110-139) (Fc fusion)
[1]
  stoichiometry N: 6
[2]
  mean fluorescence intensity (MFI): 221
  percent of cells positive: 99.8%
[3]
  mean fluorescence intensity (MFI): 9.9
  percent of cells positive: 45.5%
[4]
  mean fluorescence intensity (MFI): 14
  percent of cells positive: 82.4%

## FLAG-TNC-fCD134L (from UniProt P10039 110-139) (ligand)
[2]
  mean fluorescence intensity (MFI): 5
  percent of cells positive: 66.2%
[4]
  mean fluorescence intensity (MFI): 3
  percent of cells positive: 44.9%

## FLAG-mCD134L (FLAG-tagged murine CD134L) (from UniProt P43488 51-198) (ligand)
[2]
  mean fluorescence intensity (MFI): 309
  percent of cells positive: 99.7%
[4]
  mean fluorescence intensity (MFI): 12
  percent of cells positive: 86.5%

## Fc-TNC-mCD134L (from UniProt P10039 110-139; P43488 51-198) (Fc fusion)
[2]
  mean fluorescence intensity (MFI): 300
  percent of cells positive: 99.8%
[4]
  mean fluorescence intensity (MFI): 7
  percent of cells positive: 78.2%

B1: Fc-TNC-hCD134L (Fc fusion, chicken | human)
chain: RSPQPQPKPQPKPEPEGSLHACGCAAAPDIKDLLSRLEELEGLVSSLREQGTGGGSGGRGLQVSHRYPRIQSIKVQFTEYKKEKGFILTSQKEDEIMKVQNNSVIINCDGFYLISLKGYFSQEVNISLHYQKDEEPLFQLKKVRSVNSLMVASLTYKDKVYLNVTTDNTSLDDFHVNGGELILIHQNPGEFCVL
[5]
  stoichiometry N: 2 and 6

B2: Fc-TNC-mCD134L (Fc fusion, chicken | mouse)
chain: RSPQPQPKPQPKPEPEGSLHACGCAAAPDIKDLLSRLEELEGLVSSLREQGTGGGSGGRGLQSSSPAKDPPIQRLRGAVTRCEDGQLFISSYKNEYQTMEVQNNSVVIKCDGLYIIYLKGSFFQEVKIDLHFREDHNPISIPMLNDGRRIVFTVVASLAFKDKVYLTVNAPDTLCEHLQINDGELIVVQLTPGYCAPEGSYHSTVNQVPL
[5]
  stoichiometry N: 6

Source: paper PMC2676423 (Molecular immunology, 2009)
